Measured values taken from ChEMBL document CHEMBL1138116, “Synthesis and reactivity with beta-lactamases of a monobactam bearing a retro-amide side chain” (Bioorg Med Chem Lett, 2006).

Tests used:
[1] = substrate: O=C(NCc1ccccc1)C1CN(S(=O)(=O)O)C1=O; assay: (§1) Binding affinity to class D beta lactamase OXA1 of Escherichia coli
[2] = substrate: O=C(Cc1ccccc1)N[C@H]1CN(S(=O)(=O)O)C1=O; assay: as §1
[3] = substrate: O=C(NCc1ccccc1)C1CN(S(=O)(=O)O)C1=O; assay: (§2) Binding affinity to class A beta lactamase of Staphylococcus aureus PC1
[4] = substrate: O=C(Cc1ccccc1)N[C@H]1CN(S(=O)(=O)O)C1=O; assay: as §2
[5] = substrate: O=C(NCc1ccccc1)C1CN(S(=O)(=O)O)C1=O; assay: (§3) Binding affinity to class C beta lactamase of Enterobacter cloacae P99
[6] = substrate: O=C(Cc1ccccc1)N[C@H]1CN(S(=O)(=O)O)C1=O; assay: as §3
[7] = substrate: O=C(NCc1ccccc1)C1CN(S(=O)(=O)O)C1=O; assay: (§4) Binding affinity to TEM class A beta lactamase from the TEM2 plasmid; conditions: Escherichia coli
[8] = substrate: O=C(Cc1ccccc1)N[C@H]1CN(S(=O)(=O)O)C1=O; assay: as §4; conditions: Escherichia coli

B1: Beta-lactamase OXA-1 (Escherichia coli), P13661 (protein)
chain: MKNTIHINFAIFLIIANIIYSSASASTDISTVASPLFEGTEGCFLLYDASTNAEIAQFNKAKCATQMAPDSTFKIALSLMAFDAEIIDQKTIFKWDKTPKGMEIWNSNHTPKTWMQFSVVWVSQEITQKIGLNKIKNYLKDFDYGNQDFSGDKERNNGLTEAWLESSLKISPEEQIQFLRKIINHNLPVKNSAIENTIENMYLQDLDNSTKLYGKTGAGFTANRTLQNGWFEGFIISKSGHKYVFVSALTGNLGSNLTSSIKAKKNAITILNTLNL
Question: What does the source list for B1?
Answer: Km [1]: 2300 µM; Km [2]: 29 µM

B2: Beta-lactamase (Staphylococcus aureus), P00807 (protein)
chain: MKKLIFLIVIALVLSACNSNSSHAKELNDLEKKYNAHIGVYALDTKSGKEVKFNSDKRFAYASTSKAINSAILLEQVPYNKLNKKVHINKDDIVAYSPILEKYVGKDITLKALIEASMTYSDNTANNKIIKEIGGIKKVKQRLKELGDKVTNPVRYEIELNYYSPKSKKDTSTPAAFGKTLNKLIANGKLSKENKKFLLDLMLNNKSGDTLIKDGVPKDYKVADKSGQAITYASRNDVAFVYPKGQSEPIVLVIFTNKDNKSDKPNDKLISETAKSVMKEF
Question: With B2 as the protein, how does the Km [3] read?
Answer: Its Km is 300 µM.

Question: And the Km [4]?
Answer: Its Km is 70 µM.

B3: Beta-lactamase class C (Enterobacter cloacae), Q59401 (protein)
chain: MMKKSLCCALLLGISCSALATPVSEKQLAEVVANTVTPLMKAQSVPGMAVAVIYQGKPHYYTFGKADIAANKPVTPQTLFELGSISKTFTGVLGGDAIARGEISLDDPVTRYWPQLTGKQWQGIRMLDLATYTAGGLPLQVPDEVTDNASLLRFYQNWQPQWKPGTTRLYANASIGLFGALAVKPSGMPYEQAMTTRVLKPLKLDHTWINVPKAEEAHYAWGYRDGKAVRAVRVSPGMLDAQAYGVKTNVQDMANWVMANMAPENVADASLKQGIALAQSRYWRIGSMYQGLGWEMLNWPVEANTVVEGSDSKVALAPLPVAEVNPPAPPVKASWVHKTGSTGGFGSYVAFIPEKQIGIVMLANTSYPNPARVEAAYHILEALQ
Question: For B3, which Km [5] is on record?
Answer: The Km was 75 µM.

Question: What about the Km [6] of the same protein?
Answer: The Km was 1000 µM.

B4: Beta-lactamase TEM (Escherichia coli), P62593 (protein)
chain: MSIQHFRVALIPFFAAFCLPVFAHPETLVKVKDAEDQLGARVGYIELDLNSGKILESFRPEERFPMMSTFKVLLCGAVLSRVDAGQEQLGRRIHYSQNDLVEYSPVTEKHLTDGMTVRELCSAAITMSDNTAANLLLTTIGGPKELTAFLHNMGDHVTRLDRWEPELNEAIPNDERDTTMPAAMATTLRKLLTGELLTLASRQQLIDWMEADKVAGPLLRSALPAGWFIADKSGAGERGSRGIIAALGPDGKPSRIVVIYTTGSQATMDERNRQIAEIGASLIKHW
Question: B4 was tested. Which Km [7] did it give?
Answer: The Km was 2500 µM.

Question: What about the Km [8] of the same protein?
Answer: Its Km is 6.8 mM.
